Reference: US11111484B2, “Streptococcus bacteriophage lysins for detection and treatment of gram positive bacteria” (priority 2011, dated 2021)
Entries after “also recorded” stand apart in the source; their conditions may differ.

Experiments:
S. simulans TNK3 = test: ΔPlySs1 OD600 lysis, 1 hr, optimal buffering conditions; type: cell-based, Staphylococcus simulans
S. equi 700400 = test: as above; type: cell-based, Streptococcus equi
L. monocytogenes HER1084 = test: as above; type: cell-based, Listeria monocytogenes
S. pyogenes A486 = test: as above; type: cell-based, Streptococcus pyogenes
S. agalactiae 090R = test: as above; type: cell-based, Streptococcus agalactiae
S. gordonii 10558 = test: as above; type: cell-based, Streptococcus gordonii
MRSA strain MW2 = test: resistance assay, exposure to incrementally increasing concentrations; type: cell-based, Staphylococcus aureus; settings: concentration doubled daily from 1/32 to 4× MIC over 8 days
S. pyogenes strain 5005 = test: as above; type: cell-based, Streptococcus pyogenes; settings: S. pyogenes 5005; concentration doubled daily from 1/32 to 4× MIC over 8 days
L. monocytogenes = test: CFU studies, bactericidal effect; type: cell-based, Listeria monocytogenes; settings: 128 μg/ml PlySs2, 60 mins
Description: (§1) Log-phase bacteria were resuspended in buffer A to an OD600 of 0.1 (=0.5 McFarland≈10^8 CFU/ml). PlySs2 was added at 128 μg/ml to polypropylene microtiter plates (Costar) in triplicate for each test organism. Plates were sealed and incubated at 37° C. with shaking every 5 minutes for 1 hour. After 1 hour of incubation, cells were serially diluted in 10-fold increments and plated on BHI. Triplicate controls for each strain were performed with buffer B replacing PlySs2.

MRSA = test: MIC studies; type: cell-based, Staphylococcus aureus
Description: The Wiegand, et al. protocol to determine minimum inhibitory concentrations was followed with adjustments detailed below. A final suspension of ≈5×10^5 cells/ml in MHB (or BHI for S. pyogenes) resulted after Sterile-filtered lysin or vehicle was added at the appropriate concentration. These tests were distributed within a 96-well microtiter plate. The MIC's were determined, in this experiment, by detection of pellet formation in the bottom of rounded polysterene plate wells. They were also corroborated colorimetrically with alamarBlue®.

S. pyogenes strains = test: PlySs2 lytic activity against species and strains (FIG. 25); type: cell-based, Streptococcus pyogenes; settings: S. pyogenes serotypes M1, M3, M4, M6, M18, M49, variant without M protein
Description: FIG. 25 provides PlySs2 activity against different species and strains. Log-phase cultures were exposed to 32 μg/ml PlySs2 for 60 minutes in phosphate buffer. The final OD600 of the treated samples were divided by the final OD600 of the untreated samples to generate the normalized values above. Multiple Staphylococci (including, but not limited to: MRSA, MSSA, and VISA), Streptococci, Listeria, Enterococci, and Bacilli were tested for susceptibility to PlySs2 activity. Escherichia and Pseudomonas were tested as Gram-negative controls.

S. agalactiae = test: CFU studies, bactericidal effect; type: cell-based, Streptococcus agalactiae; settings: 128 μg/ml PlySs2, 60 mins
Description: as §1

E. coli = test: CFU studies, bactericidal effect; type: cell-based, Escherichia coli; settings: E. coli negative control; 128 μg/ml PlySs2; 60 mins
Description: as §1

[1] = PlySs2 solubility / concentrated solution; type: physicochemical; settings: ≈20 mg/ml solution
Description: The aforementioned preparation led to a highly pure lysin preparation in just two chromatographic steps (FIG. 6). With a predicted pi of 9.01, PlySs2 flowed directly through the DEAE column at pH=7.4 leaving the bulk of the contaminant proteins stuck to the DEAE column. PlySs2 eluted cleanly in the shoulder of the flow through and at 17 mM NaCl, being purified from proteins that rapidly flowed through the CM resin. This preparation yielded ≈60 mg of protein per liter of E. coli culture at ≈1.5 mg/ml with >99% purity. The yield increased to ≈150 mg per liter of E. coli culture at ≈2.0 mg/ml with >90% purity when the CM column step was forwent. If necessary, the latter product was: dialyzed (into 5 mM PB, 15 mM NaCl); lyophilized; reconstituted (at 10% of the original volume); centrifuged; and filter-sterilized (to remove any insoluble material). […] PlySs2 can be produced more efficiently, and at a higher concentration, than many published lysins (Daniel A et al (2010) Antimicrob Agents Chemother 54(4):1602-1612; Wang, Y. et al (2009) Curr Microbiol 58(6):609-615; Nelson, D et al (2006) Proc Natl Acad Sci USA 103(28):10765-10770).
PlySs2 is more tractable and stable than previously developed lysins. PlySs2 preparation is straightforward, yielding large quantities in few steps. In addition, a highly soluble lysin is essential, because it allows for ready use at high concentrations. […]

[2] = test system: vancomycin intermediate sensitivity Staphylococcus aureus (VISA) and vancomycin resistant Staphylococcus aureus (VRSA) strains; test: in vitro tests / standard MIC analysis of staphylococci (FIG. 18); type: cell-based; settings: comparable in vitro tests
Description: FIG. 18. PlySS2 was tested by standard MIC analysis for its ability to kill strains of staphylococci. Included in the testing were resistant staphylococci such as Vancomycin resistant (VRSA), Vancomycin intermediate (VISA) and methicillin resistant (MRSA) staphylococci. The three VRSA strains tested represent half of all known isolates.

B1: ΔPlySs1: truncated PlySs1 lysin, SEQ ID NO:2, N-terminal 254 amino acids: only N-terminal enzymatic and central binding domains (protein, listed as Streptococcus suis)
chain: MTINLETSIRWMSDRVGKVSYSMDYRNGPNSYDCSSAVYYALMAGGAISAGWAVNTEYMHDWLIRNGYVLVAENKPFNAQRHDVCILGKRGYSSGAGGHVVIFVDNVNVIHCNYARNGISIDNYNQVHRGMYYYLYRPANQPSISNKSLDQLVKETLAGVHGNGDTRKASLGSQYEAVMAVINGKASASEKSDEELAREVLAGKHGAGEDRKRSLGPRYEPVQAKVNELLKAKEKPSETAKNEPQTVQFKEDGDL
- lysis value after 1 hr (treated/untreated OD600 ratio) (S. simulans TNK3; 6.5 μg/ml): 0.96
- lysis value after 1 hr (treated/untreated OD600 ratio) (S. simulans TNK3; 13 μg/ml): 1.00
- lysis value after 1 hr (treated/untreated OD600 ratio) (S. simulans TNK3; 30 μg/ml): 1.00
- lysis value after 1 hr (treated/untreated OD600 ratio) (S. simulans TNK3; 65 μg/ml): 1.00
- lysis value after 1 hr (treated/untreated OD600 ratio) (S. simulans TNK3; 130 μg/ml): 0.96
- lysis value after 1 hr (treated/untreated OD600 ratio) (S. equi 700400; 6.5 μg/ml): 0.48
- lysis value after 1 hr (treated/untreated OD600 ratio) (S. equi 700400; 13 μg/ml): 0.25
- lysis value after 1 hr (treated/untreated OD600 ratio) (S. equi 700400; 30 μg/ml): 0.15
- lysis value after 1 hr (treated/untreated OD600 ratio) (S. equi 700400; 65 μg/ml): 0.07
- lysis value after 1 hr (treated/untreated OD600 ratio) (S. equi 700400; 130 μg/ml): 0.09
- lysis value after 1 hr (treated/untreated OD600 ratio) (L. monocytogenes HER1084; 6.5 μg/ml): 0.63
- lysis value after 1 hr (treated/untreated OD600 ratio) (L. monocytogenes HER1084; 13 μg/ml): 0.52
- lysis value after 1 hr (treated/untreated OD600 ratio) (L. monocytogenes HER1084; 30 μg/ml): 0.26
- lysis value after 1 hr (treated/untreated OD600 ratio) (L. monocytogenes HER1084; 65 μg/ml): 0.14
- lysis value after 1 hr (treated/untreated OD600 ratio) (L. monocytogenes HER1084; 130 μg/ml): 0.04
- lysis value after 1 hr (treated/untreated OD600 ratio) (S. pyogenes A486; 6.5 μg/ml): 0.12
- lysis value after 1 hr (treated/untreated OD600 ratio) (S. pyogenes A486; 13 μg/ml): 0.13
- lysis value after 1 hr (treated/untreated OD600 ratio) (S. pyogenes A486; 30 μg/ml): 0.13
- lysis value after 1 hr (treated/untreated OD600 ratio) (S. pyogenes A486; 65 μg/ml): 0.11
- lysis value after 1 hr (treated/untreated OD600 ratio) (S. pyogenes A486; 130 μg/ml): 0.10
- lysis value after 1 hr (treated/untreated OD600 ratio) (S. agalactiae 090R; 6.5 μg/ml): 0.97
- lysis value after 1 hr (treated/untreated OD600 ratio) (S. agalactiae 090R; 13 μg/ml): 0.99
- lysis value after 1 hr (treated/untreated OD600 ratio) (S. agalactiae 090R; 30 μg/ml): 0.97
- lysis value after 1 hr (treated/untreated OD600 ratio) (S. agalactiae 090R; 65 μg/ml): 0.98
- lysis value after 1 hr (treated/untreated OD600 ratio) (S. agalactiae 090R; 130 μg/ml): 0.93
- lysis value after 1 hr (treated/untreated OD600 ratio) (S. gordonii 10558; 6.5 μg/ml): 0.76
- lysis value after 1 hr (treated/untreated OD600 ratio) (S. gordonii 10558; 13 μg/ml): 0.32
- lysis value after 1 hr (treated/untreated OD600 ratio) (S. gordonii 10558; 30 μg/ml): 0.19
- lysis value after 1 hr (treated/untreated OD600 ratio) (S. gordonii 10558; 65 μg/ml): 0.09
- lysis value after 1 hr (treated/untreated OD600 ratio) (S. gordonii 10558; 130 μg/ml): 0.06

B2: PlySs2: Streptococcus suis prophage lysin, SEQ ID NO:3; N-terminal CHAP domain and C-terminal SH3-type 5 domain (protein, listed as Streptococcus suis)
chain: MTTVNEALNNVRAQVGSGVSVGNGECYALASWYERMISPDATVGLGAGVGWVSGAIGDTISAKNIGSSYNWQANGWTVSTSGPFKAGQIVTLGATPGNPYGHVVIVEAVDGDRLTILEQNYGGKRYPVRNYYSAASYRQQVVHYITPPGTVAQSAPNLAGSRSYRETGTMTVTVDALNVRRAPNTSGEIVAVYKRGESFDYDTVIIDVNGYVWVSYIGGSGKRNYVATGATKDGKRFGNAWGTFK
- development of resistance (MRSA strain MW2): Neither S. aureus strain developed resistance; also recorded: None of MRSA strain MW2, MSSA strain 8325, nor S. pyogenes strain 5005 developed resistance
- development of resistance (S. pyogenes strain 5005): neither MRSA nor S. pyogenes established resistance; also recorded: None of MRSA strain MW2, MSSA strain 8325, nor S. pyogenes strain 5005 developed resistance
- reduction in CFU counts (L. monocytogenes): dramatically reduced
- minimum inhibitory concentration (MIC) (MRSA): 16 µg/mL
- lytic activity (S. pyogenes strains): had activity against all strains of S. pyogenes
- reduction in CFU counts (S. agalactiae): dramatically reduced
- reduction in CFU counts (E. coli): no reduction in number
- activity after lyophilization and reconstitution to concentrated solution [1]: retained the concentration-adjusted activity
- effectiveness against VISA and VRSA [2]: similarly effective
